Data as given in IntAct's records for PubMed 23328395.

B1: Non-structural protein V (measles virus (strai), P0C774 (parent)
chain: MAEEQARHVKNGLECIRALKAEPIGSLAVEEAMAAWSEISDNPGQDRATCKEEEAGSSGLSKPCLSAIGSTEGGAPRIRGQGSGESDDDAETLGIPSRNLQASSTGLQCYHVYDHSGEAVKGIQDADSIMVQSGLDGDSTLSGGDDESENSDVDIGEPDTEGYAITDRGSAPISMGFRASDVETAEGGEIHELLKLQSRGNNFPKLGKTLNVPPPPNPSRASTSETPIKKGHRREIGLIWNGDRVFIDRWCNPMCSKVTLGTIRARCTCGECPRVCEQCRTDTGVDTRIWYHNLPEIPE
partner: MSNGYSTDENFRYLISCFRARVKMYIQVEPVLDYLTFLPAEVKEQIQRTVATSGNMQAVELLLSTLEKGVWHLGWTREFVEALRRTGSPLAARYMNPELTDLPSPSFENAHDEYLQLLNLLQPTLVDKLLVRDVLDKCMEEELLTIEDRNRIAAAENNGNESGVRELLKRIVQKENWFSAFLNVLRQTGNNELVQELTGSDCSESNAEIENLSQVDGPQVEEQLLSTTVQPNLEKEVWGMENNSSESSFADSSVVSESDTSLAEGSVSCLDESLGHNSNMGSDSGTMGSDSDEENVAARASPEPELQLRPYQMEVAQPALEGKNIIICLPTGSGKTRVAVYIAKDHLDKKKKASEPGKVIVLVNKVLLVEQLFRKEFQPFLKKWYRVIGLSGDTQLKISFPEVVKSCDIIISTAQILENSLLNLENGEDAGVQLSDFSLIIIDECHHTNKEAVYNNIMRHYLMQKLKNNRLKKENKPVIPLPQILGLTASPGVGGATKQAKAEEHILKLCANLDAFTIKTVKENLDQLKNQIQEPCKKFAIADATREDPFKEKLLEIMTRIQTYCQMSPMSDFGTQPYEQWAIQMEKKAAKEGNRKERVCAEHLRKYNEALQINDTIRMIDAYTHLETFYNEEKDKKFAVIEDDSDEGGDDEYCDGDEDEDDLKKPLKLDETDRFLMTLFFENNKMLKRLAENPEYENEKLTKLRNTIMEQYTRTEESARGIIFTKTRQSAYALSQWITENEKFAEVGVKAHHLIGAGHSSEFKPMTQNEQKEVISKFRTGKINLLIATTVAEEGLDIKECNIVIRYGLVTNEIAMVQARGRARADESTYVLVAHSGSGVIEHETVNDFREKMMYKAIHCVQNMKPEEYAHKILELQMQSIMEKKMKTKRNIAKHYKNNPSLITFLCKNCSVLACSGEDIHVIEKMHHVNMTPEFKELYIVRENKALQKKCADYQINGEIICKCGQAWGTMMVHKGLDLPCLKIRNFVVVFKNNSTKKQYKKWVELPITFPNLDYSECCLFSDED
B2: Antiviral innate immune response receptor RIG-I (Mus musculus), Q6Q899-1 (parent)
chain: MTAEQRQNLQAFRDYIKKILDPTYILSYMSSWLEDEEVQYIQAEKNNKGPMEAASLFLQYLLKLQSEGWFQAFLDALYHAGYCGLCEAIESWDFQKIEKLEEHRLLLRRLEPEFKATVDPNDILSELSECLINQECEEIRQIRDTKGRMAGAEKMAECLIRSDKENWPKVLQLALEKDNSKFSELWIVDKGFKRAESKADEDDGAEASSIQIFIQEEPECQNLSQNPGPPSEASSNNLHSPLKPRNYQLELALPAKKGKNTIICAPTGCGKTFVSLLICEHHLKKFPCGQKGKVVFFANQIPVYEQQATVFSRYFERLGYNIASISGATSDSVSVQHIIEDNDIIILTPQILVNNLNNGAIPSLSVFTLMIFDECHNTSKNHPYNQIMFRYLDHKLGESRDPLPQVVGLTASVGVGDAKTAEEAMQHICKLCAALDASVIATVRDNVAELEQVVYKPQKISRKVASRTSNTFKCIISQLMKETEKLAKDVSEELGKLFQIQNREFGTQKYEQWIVGVHKACSVFQMADKEEESRVCKALFLYTSHLRKYNDALIISEDAQMTDALNYLKAFFHDVREAAFDETERELTRRFEEKLEELEKVSRDPSNENPKLRDLYLVLQEEYHLKPETKTILFVKTRALVDALKKWIEENPALSFLKPGILTGRGRTNRATGMTLPAQKCVLEAFRASGDNNILIATSVADEGIDIAECNLVILYEYVGNVIKMIQTRGRGRARDSKCFLLTSSADVIEKEKANMIKEKIMNESILRLQTWDEMKFGKTVHRIQVNEKLLRDSQHKPQPVPDKENKKLLCGKCKNFACYTADIRVVETSHYTVLGDAFKERFVCKPHPKPKIYDNFEKKAKIFCAKQNCSHDWGIFVRYKTFEIPVIKIESFVVEDIVSGVQNRHSKWKDFHFERIQFDPAEMSV
B3: Antiviral innate immune response receptor RIG-I (Homo sapiens), O95786-1 (parent)
chain: MTTEQRRSLQAFQDYIRKTLDPTYILSYMAPWFREEEVQYIQAEKNNKGPMEAATLFLKFLLELQEEGWFRGFLDALDHAGYSGLYEAIESWDFKKIEKLEEYRLLLKRLQPEFKTRIIPTDIISDLSECLINQECEEILQICSTKGMMAGAEKLVECLLRSDKENWPKTLKLALEKERNKFSELWIVEKGIKDVETEDLEDKMETSDIQIFYQEDPECQNLSENSCPPSEVSDTNLYSPFKPRNYQLELALPAMKGKNTIICAPTGCGKTFVSLLICEHHLKKFPQGQKGKVVFFANQIPVYEQQKSVFSKYFERHGYRVTGISGATAENVPVEQIVENNDIIILTPQILVNNLKKGTIPSLSIFTLMIFDECHNTSKQHPYNMIMFNYLDQKLGGSSGPLPQVIGLTASVGVGDAKNTDEALDYICKLCASLDASVIATVKHNLEELEQVVYKPQKFFRKVESRISDKFKYIIAQLMRDTESLAKRICKDLENLSQIQNREFGTQKYEQWIVTVQKACMVFQMPDKDEESRICKALFLYTSHLRKYNDALIISEHARMKDALDYLKDFFSNVRAAGFDEIEQDLTQRFEEKLQELESVSRDPSNENPKLEDLCFILQEEYHLNPETITILFVKTRALVDALKNWIEGNPKLSFLKPGILTGRGKTNQNTGMTLPAQKCILDAFKASGDHNILIATSVADEGIDIAQCNLVILYEYVGNVIKMIQTRGRGRARGSKCFLLTSNAGVIEKEQINMYKEKMMNDSILRLQTWDEAVFREKILHIQTHEKFIRDSQEKPKPVPDKENKKLLCRKCKALACYTADVRVIEECHYTVLGDAFKECFVSRPHPKPKQFSSFEKRAKIFCARQNCSHDWGIHVKYKTFEIPVIKIESFVVEDIATGVQTLYSKWKDFHFEKIPFDPAEMSK
partner: B1 chain
B4: Interferon-induced helicase C domain-containing protein 1 (Mus musculus), Q8R5F7-1 (parent)
chain: MSIVCSAEDSFRNLILFFRPRLKMYIQVEPVLDHLIFLSAETKEQILKKINTCGNTSAAELLLSTLEQGQWPLGWTQMFVEALEHSGNPLAARYVKPTLTDLPSPSSETAHDECLHLLTLLQPTLVDKLLINDVLDTCFEKGLLTVEDRNRISAAGNSGNESGVRELLRRIVQKENWFSTFLDVLRQTGNDALFQELTGGGCPEDNTDLANSSHRDGPAANECLLPAVDESSLETEAWNVDDILPEASCTDSSVTTESDTSLAEGSVSCFDESLGHNSNMGRDSGTMGSDSDESVIQTKRVSPEPELQLRPYQMEVAQPALDGKNIIICLPTGSGKTRVAVYITKDHLDKKKQASESGKVIVLVNKVMLAEQLFRKEFNPYLKKWYRIIGLSGDTQLKISFPEVVKSYDVIISTAQILENSLLNLESGDDDGVQLSDFSLIIIDECHHTNKEAVYNNIMRRYLKQKLRNNDLKKQNKPAIPLPQILGLTASPGVGAAKKQSEAEKHILNICANLDAFTIKTVKENLGQLKHQIKEPCKKFVIADDTRENPFKEKLLEIMASIQTYCQKSPMSDFGTQHYEQWAIQMEKKAAKDGNRKDRVCAEHLRKYNEALQINDTIRMIDAYSHLETFYTDEKEKKFAVLNDSDKSDDEASSCNDQLKGDVKKSLKLDETDEFLMNLFFDNKKMLKKLAENPKYENEKLIKLRNTILEQFTRSEESSRGIIFTKTRQSTYALSQWIMENAKFAEVGVKAHHLIGAGHSSEVKPMTQTEQKEVISKFRTGEINLLIATTVAEEGLDIKECNIVIRYGLVTNEIAMVQARGRARADESTYVLVTSSGSGVTEREIVNDFREKMMYKAINRVQNMKPEEYAHKILELQVQSILEKKMKVKRSIAKQYNDNPSLITLLCKNCSMLVCSGENIHVIEKMHHVNMTPEFKGLYIVRENKALQKKFADYQTNGEIICKCGQAWGTMMVHKGLDLPCLKIRNFVVNFKNNSPKKQYKKWVELPIRFPDLDYSEYCLYSDED
B5: Interferon-induced helicase C domain-containing protein 1 (Homo sapiens), Q9BYX4 (parent)
chain: B1 partner
partner: B1 chain
B6: Non-structural protein V (Simian virus 5 (strain W3)), P11207 (parent)
chain: MDPTDLSFSPDEINKLIETGLNTVEYFTSQQVTGTSSLGKNTIPPGVTGLLTNAAEAKIQESTNHQKGSVGGGAKPKKPRPKIAIVPADDKTVPGKPIPNPLLGLDSTPSTQTVLDLSGKTLPSGSYKGVKLAKFGKENLMTRFIEEPRENPIATSSPIDFKRGRDTGGFHRREYSIGWVGDEVKVTEWCNPSCSPITAAARRFECTCHQCPVTCSECERDT
partner: B4 chain

Variants of: B1
Conditions: with ifih1_human IFIH1, Q9BYX4

Row | Variant | effect of a mutation on the interaction
1 | E235A | decreasing interaction strength

Variants of: B2
Conditions: with v_piv5 P/V

Row | Variant | effect of a mutation on the interaction
2 | L715R;E717G | increasing interaction strength

Variants of: B3
Conditions: with v_measc P/V

Row | Variant | effect of a mutation on the interaction
3 | L714R;E716G | increasing interaction strength
4 | L714R | increasing interaction strength

Variants of: B4
Conditions: with v_piv5 P/V

Row | Variant | effect of a mutation on the interaction
5 | R806L | disrupting interaction strength

Variants of: B5
Conditions: with v_measc P/V

Row | Variant | effect of a mutation on the interaction
6 | R806L | decreasing interaction strength

Variants of: B6
Conditions: with Ifih1, Q8R5F7-1

Row | Variant | effect of a mutation on the interaction
7 | E174A | decreasing interaction strength
